In patent publication US20260001928A1 (CORTERIA PHARMACEUTICALS, priority 2022, published 2026):
*1 amine or outer side, *2 acyl side, *3 side chain or, on linkers, in order; H or OH if unused. Where no end group is shown, it is not given here. Side-chain parts run from the residue outwards. [ ]: non-standard residue; d: D form. The star is where a group is joined. C16 diacid = O=C(O)CCCCCCCCCCCCCCC(=O)*; γGlu = O=C(O)[C@H](CCC(=O)[*:2])N[*:1]; C14 diacid = O=C(O)CCCCCCCCCCCCC(=O)*; NMeI = CC[C@H](C)[C@H](NC)C(=O)O; Api = NC1(C(=O)O)CCNCC1; AEEA = NCCOCCOCC(=O)O; Aib = CC(C)(N)C(=O)O

T1: CRF1R receptor (UniProt P34998 24-415, limits assumed)
T1 sequence (looked up): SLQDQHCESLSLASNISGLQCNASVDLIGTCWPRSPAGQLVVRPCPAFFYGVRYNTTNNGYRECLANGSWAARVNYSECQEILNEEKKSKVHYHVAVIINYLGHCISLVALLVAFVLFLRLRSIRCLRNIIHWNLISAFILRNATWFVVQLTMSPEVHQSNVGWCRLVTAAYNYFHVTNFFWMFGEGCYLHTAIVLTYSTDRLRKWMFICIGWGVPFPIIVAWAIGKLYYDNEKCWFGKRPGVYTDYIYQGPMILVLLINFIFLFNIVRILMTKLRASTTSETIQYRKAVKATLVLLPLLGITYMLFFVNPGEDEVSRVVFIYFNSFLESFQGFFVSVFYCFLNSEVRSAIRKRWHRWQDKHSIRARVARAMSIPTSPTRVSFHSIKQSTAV

B1: SEQ ID NO 172 (peptide)
peptide: Ac-IVLSLD[dV]PIKLK([AEEA-AEEA-γGlu-C14 diacid])KILLEQEKQKKQREQAETN[Api]QILAQV-NH2
SMILES: CC[C@H](C)[C@H](NC(C)=O)C(=O)N[C@H](C(=O)N[C@@H](CC(C)C)C(=O)N[C@@H](CO)C(=O)N[C@@H](CC(C)C)C(=O)N[C@@H](CC(=O)O)C(=O)N[C@@H](C(=O)N1CCC[C@H]1C(=O)N[C@H](C(=O)N[C@@H](CCCCN)C(=O)N[C@@H](CC(C)C)C(=O)N[C@@H](CCCCNC(=O)COCCOCCNC(=O)COCCOCCNC(=O)CC[C@H](NC(=O)CCCCCCCCCCCCC(=O)O)C(=O)O)C(=O)N[C@@H](CCCCN)C(=O)N[C@H](C(=O)N[C@@H](CC(C)C)C(=O)N[C@@H](CC(C)C)C(=O)N[C@@H](CCC(=O)O)C(=O)N[C@@H](CCC(N)=O)C(=O)N[C@@H](CCC(=O)O)C(=O)N[C@@H](CCCCN)C(=O)N[C@@H](CCC(N)=O)C(=O)N[C@@H](CCCCN)C(=O)N[C@@H](CCCCN)C(=O)N[C@@H](CCC(N)=O)C(=O)N[C@@H](CCCNC(=N)N)C(=O)N[C@@H](CCC(=O)O)C(=O)N[C@@H](CCC(N)=O)C(=O)N[C@@H](C)C(=O)N[C@@H](CCC(=O)O)C(=O)N[C@H](C(=O)N[C@@H](CC(N)=O)C(=O)NC1(C(=O)N[C@@H](CCC(N)=O)C(=O)N[C@H](C(=O)N[C@@H](CC(C)C)C(=O)N[C@@H](C)C(=O)N[C@@H](CCC(N)=O)C(=O)N[C@H](C(N)=O)C(C)C)[C@@H](C)CC)CCNCC1)[C@@H](C)O)[C@@H](C)CC)[C@@H](C)CC)C(C)C)C(C)C
B2: SEQ ID NO 173 (peptide)
peptide: Ac-IVLSLD[dV]PIKLK([AEEA-AEEA-γGlu-C14 diacid])KILLEQEKQK[Aib]QREQAETN[Api]QILAQV-NH2
SMILES: CC[C@H](C)[C@H](NC(C)=O)C(=O)N[C@H](C(=O)N[C@@H](CC(C)C)C(=O)N[C@@H](CO)C(=O)N[C@@H](CC(C)C)C(=O)N[C@@H](CC(=O)O)C(=O)N[C@@H](C(=O)N1CCC[C@H]1C(=O)N[C@H](C(=O)N[C@@H](CCCCN)C(=O)N[C@@H](CC(C)C)C(=O)N[C@@H](CCCCNC(=O)COCCOCCNC(=O)COCCOCCNC(=O)CC[C@H](NC(=O)CCCCCCCCCCCCC(=O)O)C(=O)O)C(=O)N[C@@H](CCCCN)C(=O)N[C@H](C(=O)N[C@@H](CC(C)C)C(=O)N[C@@H](CC(C)C)C(=O)N[C@@H](CCC(=O)O)C(=O)N[C@@H](CCC(N)=O)C(=O)N[C@@H](CCC(=O)O)C(=O)N[C@@H](CCCCN)C(=O)N[C@@H](CCC(N)=O)C(=O)N[C@@H](CCCCN)C(=O)NC(C)(C)C(=O)N[C@@H](CCC(N)=O)C(=O)N[C@@H](CCCNC(=N)N)C(=O)N[C@@H](CCC(=O)O)C(=O)N[C@@H](CCC(N)=O)C(=O)N[C@@H](C)C(=O)N[C@@H](CCC(=O)O)C(=O)N[C@H](C(=O)N[C@@H](CC(N)=O)C(=O)NC1(C(=O)N[C@@H](CCC(N)=O)C(=O)N[C@H](C(=O)N[C@@H](CC(C)C)C(=O)N[C@@H](C)C(=O)N[C@@H](CCC(N)=O)C(=O)N[C@H](C(N)=O)C(C)C)[C@@H](C)CC)CCNCC1)[C@@H](C)O)[C@@H](C)CC)[C@@H](C)CC)C(C)C)C(C)C
B3: SEQ ID NO 3 (peptide)
peptide: Ac-VLSLD[dV]PIKLK([γGlu-C16 diacid])QILLKQERQKKQREQAEKNKQILEQV-NH2
B4: SEQ ID NO 174 (peptide)
peptide: Ac-IVLSLD[dV]PIKLK([AEEA-γGlu-γGlu-C14 diacid])KILLEQEKQKKQREQAETN[Aib]QILAQV-NH2
B5: SEQ ID NO 175 (peptide)
peptide: Ac-IVLSLD[dV]PIKLK([AEEA-AEEA-γGlu-γGlu-C14 diacid])KILLEQEKQKKQREQAETN[Api]QILAQV-NH2
SMILES: CC[C@H](C)[C@H](NC(C)=O)C(=O)N[C@H](C(=O)N[C@@H](CC(C)C)C(=O)N[C@@H](CO)C(=O)N[C@@H](CC(C)C)C(=O)N[C@@H](CC(=O)O)C(=O)N[C@@H](C(=O)N1CCC[C@H]1C(=O)N[C@H](C(=O)N[C@@H](CCCCN)C(=O)N[C@@H](CC(C)C)C(=O)N[C@@H](CCCCNC(=O)COCCOCCNC(=O)COCCOCCNC(=O)CC[C@H](NC(=O)CC[C@H](NC(=O)CCCCCCCCCCCCC(=O)O)C(=O)O)C(=O)O)C(=O)N[C@@H](CCCCN)C(=O)N[C@H](C(=O)N[C@@H](CC(C)C)C(=O)N[C@@H](CC(C)C)C(=O)N[C@@H](CCC(=O)O)C(=O)N[C@@H](CCC(N)=O)C(=O)N[C@@H](CCC(=O)O)C(=O)N[C@@H](CCCCN)C(=O)N[C@@H](CCC(N)=O)C(=O)N[C@@H](CCCCN)C(=O)N[C@@H](CCCCN)C(=O)N[C@@H](CCC(N)=O)C(=O)N[C@@H](CCCNC(=N)N)C(=O)N[C@@H](CCC(=O)O)C(=O)N[C@@H](CCC(N)=O)C(=O)N[C@@H](C)C(=O)N[C@@H](CCC(=O)O)C(=O)N[C@H](C(=O)N[C@@H](CC(N)=O)C(=O)NC1(C(=O)N[C@@H](CCC(N)=O)C(=O)N[C@H](C(=O)N[C@@H](CC(C)C)C(=O)N[C@@H](C)C(=O)N[C@@H](CCC(N)=O)C(=O)N[C@H](C(N)=O)C(C)C)[C@@H](C)CC)CCNCC1)[C@@H](C)O)[C@@H](C)CC)[C@@H](C)CC)C(C)C)C(C)C
B6: SEQ ID NO 176 (peptide)
peptide: [NMeI]VLSLD[dV]PIKLK([γGlu-C14 diacid])KILLEQEKQKAQREQAETN[Aib]QILAQV-NH2
modifications: N-terminus assumed
SMILES: CC[C@H](C)[C@H](NC)C(=O)N[C@H](C(=O)N[C@@H](CC(C)C)C(=O)N[C@@H](CO)C(=O)N[C@@H](CC(C)C)C(=O)N[C@@H](CC(=O)O)C(=O)N[C@@H](C(=O)N1CCC[C@H]1C(=O)N[C@H](C(=O)N[C@@H](CCCCN)C(=O)N[C@@H](CC(C)C)C(=O)N[C@@H](CCCCNC(=O)CC[C@H](NC(=O)CCCCCCCCCCCCC(=O)O)C(=O)O)C(=O)N[C@@H](CCCCN)C(=O)N[C@H](C(=O)N[C@@H](CC(C)C)C(=O)N[C@@H](CC(C)C)C(=O)N[C@@H](CCC(=O)O)C(=O)N[C@@H](CCC(N)=O)C(=O)N[C@@H](CCC(=O)O)C(=O)N[C@@H](CCCCN)C(=O)N[C@@H](CCC(N)=O)C(=O)N[C@@H](CCCCN)C(=O)N[C@@H](C)C(=O)N[C@@H](CCC(N)=O)C(=O)N[C@@H](CCCNC(=N)N)C(=O)N[C@@H](CCC(=O)O)C(=O)N[C@@H](CCC(N)=O)C(=O)N[C@@H](C)C(=O)N[C@@H](CCC(=O)O)C(=O)N[C@H](C(=O)N[C@@H](CC(N)=O)C(=O)NC(C)(C)C(=O)N[C@@H](CCC(N)=O)C(=O)N[C@H](C(=O)N[C@@H](CC(C)C)C(=O)N[C@@H](C)C(=O)N[C@@H](CCC(N)=O)C(=O)N[C@H](C(N)=O)C(C)C)[C@@H](C)CC)[C@@H](C)O)[C@@H](C)CC)[C@@H](C)CC)C(C)C)C(C)C
B7: SEQ ID NO 177 (peptide)
peptide: [NMeI]VLSLD[dV]PIKLK([γGlu-C14 diacid])KILLEQEKQK[Aib]QREQAETN[Aib]QILAQV-NH2
modifications: N-terminus assumed
SMILES: CC[C@H](C)[C@H](NC)C(=O)N[C@H](C(=O)N[C@@H](CC(C)C)C(=O)N[C@@H](CO)C(=O)N[C@@H](CC(C)C)C(=O)N[C@@H](CC(=O)O)C(=O)N[C@@H](C(=O)N1CCC[C@H]1C(=O)N[C@H](C(=O)N[C@@H](CCCCN)C(=O)N[C@@H](CC(C)C)C(=O)N[C@@H](CCCCNC(=O)CC[C@H](NC(=O)CCCCCCCCCCCCC(=O)O)C(=O)O)C(=O)N[C@@H](CCCCN)C(=O)N[C@H](C(=O)N[C@@H](CC(C)C)C(=O)N[C@@H](CC(C)C)C(=O)N[C@@H](CCC(=O)O)C(=O)N[C@@H](CCC(N)=O)C(=O)N[C@@H](CCC(=O)O)C(=O)N[C@@H](CCCCN)C(=O)N[C@@H](CCC(N)=O)C(=O)N[C@@H](CCCCN)C(=O)NC(C)(C)C(=O)N[C@@H](CCC(N)=O)C(=O)N[C@@H](CCCNC(=N)N)C(=O)N[C@@H](CCC(=O)O)C(=O)N[C@@H](CCC(N)=O)C(=O)N[C@@H](C)C(=O)N[C@@H](CCC(=O)O)C(=O)N[C@H](C(=O)N[C@@H](CC(N)=O)C(=O)NC(C)(C)C(=O)N[C@@H](CCC(N)=O)C(=O)N[C@H](C(=O)N[C@@H](CC(C)C)C(=O)N[C@@H](C)C(=O)N[C@@H](CCC(N)=O)C(=O)N[C@H](C(N)=O)C(C)C)[C@@H](C)CC)[C@@H](C)O)[C@@H](C)CC)[C@@H](C)CC)C(C)C)C(C)C

What follows are binders tested against T1, CRF1R receptor (assay: cell-based or functional assay).

Binder | Emax (% I) [%] | EC50 [nM]
B1 | -6 | –
B2 | -1 | –
B3 | 27 | > 250
B4 | 11 | > 250
B5 | 5 | –
B6 | 8 | –
B7 | 10 | –

Each binder was assayed against human corticotropin-releasing factor 2a (CRF2a receptor) (human), Q13324 (assay: cell-based or functional assay).
human corticotropin-releasing factor 2a (CRF2a receptor) (human), Q13324, sequence (Q13324 20-411): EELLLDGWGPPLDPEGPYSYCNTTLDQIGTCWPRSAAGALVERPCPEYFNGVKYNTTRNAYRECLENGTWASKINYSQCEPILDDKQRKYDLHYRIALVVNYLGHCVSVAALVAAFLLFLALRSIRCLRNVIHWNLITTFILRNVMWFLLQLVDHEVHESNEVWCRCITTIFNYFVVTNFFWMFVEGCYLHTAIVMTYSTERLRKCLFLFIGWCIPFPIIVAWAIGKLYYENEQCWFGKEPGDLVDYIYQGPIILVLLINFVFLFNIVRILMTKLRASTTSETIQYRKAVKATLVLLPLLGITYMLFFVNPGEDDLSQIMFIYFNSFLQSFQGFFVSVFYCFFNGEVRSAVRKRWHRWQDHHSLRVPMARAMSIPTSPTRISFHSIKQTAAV

Binder | EC50 [nM] (cAMP)
B1 | 16.1
B2 | 28.1
B3 | 0.16
B4 | 16.2
B5 | 18.9
B6 | 0.99
B7 | 0.86
